Reference: patent US12285470B2, “Trim proteins and galectins cooperate and codirect autophagy and are useful in the treatment of autophagy related diseases” (UNM RAINFOREST INNOVATIONS, priority 2016, dated 2025)

T1: Galectin-8 (Homo sapiens, UniProt O00214)
T1 construct: made in house; host or cells: Escherichia coli SoluBL21
T1 sequence (O00214 1-359 isoform O00214-2): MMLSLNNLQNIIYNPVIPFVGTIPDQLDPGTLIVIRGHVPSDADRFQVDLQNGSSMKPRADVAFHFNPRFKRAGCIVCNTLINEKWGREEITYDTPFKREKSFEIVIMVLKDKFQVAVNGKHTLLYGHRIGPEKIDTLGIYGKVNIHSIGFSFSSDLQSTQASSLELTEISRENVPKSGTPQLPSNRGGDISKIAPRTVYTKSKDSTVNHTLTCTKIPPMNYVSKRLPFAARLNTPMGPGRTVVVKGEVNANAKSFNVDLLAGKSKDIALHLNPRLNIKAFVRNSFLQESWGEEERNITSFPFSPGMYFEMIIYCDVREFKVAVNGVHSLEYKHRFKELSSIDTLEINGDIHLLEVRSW

B1: TRIM6: TRIM (tripartite motif) protein tested in GST-Galectin pulldowns (protein)
chain: MTSPVLVDIREEVTCPICLELLTEPLSIDCGHSFCQACITPNGRESVIGQEGERSCPVCQTSYQPGNLRPNRHLANIVRRLREVVLGPGKQLKAVLCADHGEKLQLFCQEDGKVICWLCERSQEHRGHHTFLVEEVAQEYQEKFQESLKKLKNEEQEAEKLTAFIREKKTSWKNQMEPERCRIQTEFNQLRNILDRVEQRELKKLEQEEKKGLRIIEEAENDLVHQTQSLRELISDLERRCQGSTMELLQDVSDVTERSEFWTLRKPEALPTKLRSMFRAPDLKRMLRVCRELTDVQSYWVDVTLNPHTANLNLVLAKNRRQVRFVGAKVSGPSCLEKHYDCSVLGSQHFSSGKHYWEVDVAKKTAWILGVCSNSLGPTFSFNHFAQNHSAYSRYQPQSGYWVIGLQHNHEYRAYEDSSPSLLLSMTVPPRRVGVFLDYEAGTVSFYNVTNHGFPIYTFSKYYFPTTLCPYFNPCNCVIPMTLRRPSS
modifications: left off: small tags and cut ends
notes: TRIM (tripartite motif) protein tested in GST-Galectin pulldowns
B2: TRIM56: TRIM protein, Accession No. NM_030961, SEQ ID NO: 10 (protein, listed as Homo sapiens)
chain: MVSHGSSPSLLEALSSDFLACKICLEQLRAPKTLPCLHTYCQDCLAQLADGGRVRCPECRETVPVPPEGVASFKTNFFVNGLLDLVKARACGDLRAGKPACALCPLVGGTSTGGPATARCLDCADDLCQACADGHRCTRQTHTHRVVDLVGYRAGWYDEEARERQAAQCPQHPGEALRFLCQPCSQLLCRECRLDPHLDHPCLPLAEAVRARRPGLEGLLAGVDNNLVELEAARRVEKEALARLREQAARVGTQVEEAAEGVLRALLAQKQEVLGQLRAHVEAAEEAARERLAELEGREQVARAAAAFARRVLSLGREAEILSLEGAIAQRLRQLQGCPWAPGPAPCLLPQLELHPGLLDKNCHLLRLSFEEQQPQKDGGKDGAGTQGGEESQSRREDEPKTERQGGVQPQAGDGAQTPKEEKAQTTREEGAQTLEEDRAQTPHEDGGPQPHRGGRPNKKKKFKGRLKSISREPSPALGPNLDGSGLLPRPIFYCSFPTRMPGDKRSPRITGLCPFGPREILVADEQNRALKRFSLNGDYKGTVPVPEGCSPCSVAALQSAVAFSASARLYLINPNGEVQWRRALSLSQASHAVAALPSGDRVAVSVAGHVEVYNMEGSLATRFIPGGKASRGLRALVFLTTSPQGHFVGSDWQQNSVVICDGLGQVVGEYKGPGLHGCQPGSVSVDKKGYIFLTLREVNKVVILDPKGSLLGDFLTAYHGLEKPRVTTMVDGRYLVVSLSNGTIHIFRVRSPDS
B3: TRIM55: TRIM (tripartite motif) protein tested in GST-Galectin pulldowns (protein)
chain: MSASLNYKSFSKEQQTMDNLEKQLICPICLEMFTKPVVILPCQHNLCRKCASDIFQASNPYLPTRGGTTMASGGRFRCPSCRHEVVLDRHGVYGLQRNLLVENIIDIYKQESTRPEKKSDQPMCEEHEEERINIYCLNCEVPTCSLCKVFGAHKDCQVAPLTHVFQRQKSELSDGIAILVGSNDRVQGVISQLEDTCKTIEECCRKQKQELCEKFDYLYGILEERKNEMTQVITRTQEEKLEHVRALIKKYSDHLENVSKLVESGIQFMDEPEMAVFLQNAKTLLKKISEASKAFQMEKIEHGYENMNHFTVNLNREEKIIREIDFYREDEDEEEEEGGEGEKEGEGEVGGEAVEVEEVENVQTEFPGEDENPEKASELSQVELQAAPGALPVSSPEPPPALPPAADAPVTQGEVVPTGSEQTTESETPVPAAAETADPLFYPSWYKGQTRKATTNPPCTPGSEGLGQIGPPGSEDSNVRKAEVAAAAASERAAVSGKETSAPAATSQIGFEAPPLQGQAAAPASGSGADSEPARHIFSFSWLNSLNE
modifications: left off: small tags and cut ends
notes: as for B1

How the values were obtained:
Galectin-3 = target: T2, Galectin-3 (Homo sapiens, UniProt P17931); test: GST pulldown of in vitro translated radiolabeled TRIMs with GST-Galectin-3; type: binding; conditions: in vitro translated 35S-Myc-HA-TRIMs, no ULK1 added
T2 construct: made in house; host or cells: Escherichia coli SoluBL21
Description: (§1) GST-fusion proteins were expressed in Escherichia coli SoluBL21 (Amsbio). […] The [^35S] labeled proteins were produced using the TNT T7 Quick Coupled Transcription/Translation System (Promega) in the presence of [^35S] L-methionine. The proteins were eluted from washed beads by boiling in SDS-PAGE gel loading buffer. separated by SDS-PAGE, and radiolabeled proteins were detected in a Fujifilm bioimaging analyzer BAS-5000 (Fuji).

Galectin-8 = target: T1, Galectin-8; test: GST pulldown of in vitro translated radiolabeled TRIMs with GST-Galectin-8; type: binding; conditions: in vitro translated 35S-Myc-HA-TRIMs
Description: as §1

T2 sequence (P17931 whole entry): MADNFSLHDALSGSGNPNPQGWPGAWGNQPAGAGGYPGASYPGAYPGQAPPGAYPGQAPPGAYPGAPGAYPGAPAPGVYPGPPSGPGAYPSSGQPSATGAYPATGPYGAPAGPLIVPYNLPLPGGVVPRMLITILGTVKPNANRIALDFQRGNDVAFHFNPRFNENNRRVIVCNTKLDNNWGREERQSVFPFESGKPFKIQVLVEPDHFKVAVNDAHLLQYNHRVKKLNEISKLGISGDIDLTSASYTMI

| Molecule | binding to GST-Galectin-3 in GST pulldown (Galectin-3) | binding to GST-Galectin-8 in GST pulldown (Galectin-8) |
| --- | --- | --- |
| TRIM21: TRIM protein, Accession No. NM_003141, SEQ ID NO: 8 | did not | did not |
| B1 | bound | bound |
| B2 | did not | did not |
| B3 | did not | did not |
